# Reference: patent US20240207429A1, “LINKERS, DRUG LINKERS AND CONJUGATES THEREOF AND METHODS OF USING THE SAME” (ProfoundBio US Co., priority 2021, published 2024)
# Test system: Hela cells
# Assay: Flow cytometry binding to Hela cells
# Format: cell-based
# Settings: transfection supernatants, FIG. 6
# Protocol: The binding activity of the antibodies to Hela cells (ATCC@ CCL-2, provided by COBIOER) and to RPTEC/TERT1 cells (ATCC@ CRL-4031, provided by COBIOER) was tested by flow cytometry using the transfection supernatants. Briefly, target cells were digested with 0.02% EDTA-2Na, centrifuged at 1500 rpm for 3 mins, and resuspended with PBS. After counting, the cells were added to a 1.5 ml centrifuge tube with 1×10^6 cells per tube, centrifuged at 1500 rpm for 5 minutes, and the supernatant was discarded. Then all the operations were carried out on an ice bath. 100 μL of transfection supernatant was added to each 1.5 ml centrifuge tube. Blank cells, blank cells plus secondary antibody, medium and HEK293 supernatant were set up as the controls. The reaction was performed on an ice bath for 1 hour. Then the cells were pelleted and washed twice with PBS. The secondary antibody, goat anti-Human IgG (PE, abcam, ab98596), was diluted (1:200) and added using 100 μL per tube. The reaction was performed on an ice bath for 1 hour in the dark. The cells were pelleted again and washed twice with PBS, resuspended in 300 μL PBS, and FL2 fluorescence readings were measured by cytometry. The results were analyzed by FlowJo™10 software.
# Anti-FOLR1 antibody binding to Hela and RPTEC/TERT1 cells was tested by FACS. The study was carried out as described above. […]
molecule,measurement,value
"F40: Anti-FOLR1 antibody clone: ""Clone F40 has a different HCDRs and LCDRs, and with different HFR and LFR"" (antibody, V domains shown) VH: EVQLLESGGGVVQPGRSLRLSCAASGFTFSSYAMHWVRQAPGKGLEWVAVISYDGSNKYYADSVKGRFIISRDNSKNTVYLQMNSLRAEDTAVYYCARPTYVFTYTGSSFDYWGQGTQVTVSS VL: DIQVTQSPSSLSASLGDTVSITCRASRGLTDSVAWYQQKPGQAPKLLIYAASTLQSGVPSRFGGSGSGSYFTLTITSLQPEDVATYYCQNYKSAPWTFGQGTKVEIK",Hela cell binding,weakly positive
